In patent publication US20250388664A1 (BIOARCTIC, published 2025):
Where a chain is given by its changes, count along the chain named. Names may count otherwise.

Columns and labels:
[1] = target: T1, hTfR1 (recombinant, construct not specified) (human, UniProt P02786 89-760, limits assumed); test: SPR (Biacore 8K), single-cycle kinetics, hTfR1 captured through its N-terminal DYKDDDDK tag, scFv injected in 5 steps (3-fold, from 700 or 400 nM)
T1 construct: also called biotinylated hTfR1
Description: Binding to hTfR1 of six different purified scFv variants from Example 24 was evaluated by surface plasmon resonance (SPR) using Biacore 8K (Cytiva). 30 μg/ml of […] Tag mAb FG4R (Thermo Fisher Scientific, MA1-91878) in 10 mM acetate buffer, pH 4.5 was immobilized on a CM5 sensor chip (Cytiva, #BR100399) using the amine coupling kit type 2 (Cytiva, #BR100633) according to the manufacturer's instruction, resulting in immobilization levels of approximately 10000 RU. hTfR1 was captured via an N-terminal […] tag. To this end, the receptor was injected over the chip with a contact time of 60 s at a flow rate of 10 μl/min. […] Interaction was measured using the single cycle kinetics method with a contact time of 120 s at a flow rate of 30 μl/min followed by a dissociation time of 600 s. Regeneration of the surface between cycles was done by injecting 10 mM glycine-HCl pH 1.7 with a contact time of 30 s and a flow rate of 30 μl/min. The binding modules were diluted in HBS-EP+ (Cytiva, #BR100669). Experiments were performed at 25° C.

AβpE3-42 protofibrils [2] = target: T2, AβpE3-42 protofibrils (UniProt P05067 674-713, pyroglutamate at position 3 (N-terminal residue)); test: SPR, protofibrils immobilised, antibody injected, 1:1 fit, apparent
T2 construct: range 3-42 (Aβ numbering); Soluble aggregates made from AβpE3-42 peptide, purified in the void peak of SEC; also called AβpE3-42 PF
T2 sequence (P05067 674-713): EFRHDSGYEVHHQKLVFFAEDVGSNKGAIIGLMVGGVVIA
Description: (§1) Single cycle kinetics was also used to measure binding of the antibodies to AβpE3-42 protofibrils. […] Regeneration of the surface between cycles was done by injecting 30 μl 10 mM glycine-HCl pH 1.7. The binding data was fitted to a 1:1 interaction model.
(§2) In all SPR experiments, 1×HBS-EP+ (Cytiva, cat. no. BR100669) was used to dilute antibodies and target antigens. Experiments were performed at 25° C.
(§3) Affinity evaluation and KD determination by surface plasmon resonance: Binding interactions between antigens and antibodies were evaluated by SPR using a Biacore 8K instrument (Cytiva) according to standard procedures.

AβpE3-42 protofibrils [3] = target: T2, AβpE3-42 protofibrils; test: SPR, protofibrils immobilised, antibody injected, 1:1 fit, apparent; binding to AβpE3-42 protofibrils; KD in pM
Description: as §1, §2, §3

AβpE3-40 monomer [4] = target: T3, AβpE3-40 monomer (UniProt P05067 674-711, pyroglutamate at position 3 (N-terminal residue)); test: SPR, antibody immobilised, monomer injected, 1:1 fit
T3 construct: range 3-40 (Aβ numbering); Synthetic peptide (Bachem/Anaspec), verified monomeric by SEC; also called monomeric AβpE3-40
T3 sequence (P05067 674-711): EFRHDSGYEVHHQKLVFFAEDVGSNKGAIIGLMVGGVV
Description: Single cycle kinetics with the antibodies immobilized on a CM5 chip was used to measure the binding of the antibodies to the AβpE3-40 monomer. For the measurements, 5 μg/ml of analyte antibody was immobilized on the chip. […] Regeneration of the surface between cycles was done by injecting 30 μl 3 M MgCl₂. The binding data was fitted to a 1:1 interaction model.
as §2, §3

AβpE3-42 protofibrils [5] = target: T2, AβpE3-42 protofibrils; test: inhibition ELISA, antigen titrated in solution, AβpE3-40 coat
Aβ1-40 monomer = target: T4, Aβ1-40 monomer (UniProt P05067 672-711); test: as above
T4 construct: range 1-40 (Aβ numbering)
T4 sequence (P05067 672-711): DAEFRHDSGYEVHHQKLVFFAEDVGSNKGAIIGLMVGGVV

AβpE3-40 monomer [6] = target: T3, AβpE3-40 monomer; test: as above
Aβ1-42 protofibrils = target: T5, Aβ1-42 protofibrils (UniProt P05067 672-713); test: as above
T5 construct: range 1-42 (Aβ numbering); Soluble aggregates made from Aβ1-42 monomer
T5 sequence (P05067 672-713): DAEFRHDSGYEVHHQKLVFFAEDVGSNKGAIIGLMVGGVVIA

[7] = target: T6, ectodomain of human TfR1 (His10-hTfR1; SEQ ID NO:110) (human, UniProt P02786 89-760); test: BLI: His-tagged Fab loaded from cell supernatant on anti-Fab sensors, hTfR1 ectodomain at 3.75 µg/ml in solution, 300 s association, 300 s dissociation
T6 construct: also called ectodomain of hTfR1
T6 sequence (P02786 other isoform, or with tags, fused parts or gaps): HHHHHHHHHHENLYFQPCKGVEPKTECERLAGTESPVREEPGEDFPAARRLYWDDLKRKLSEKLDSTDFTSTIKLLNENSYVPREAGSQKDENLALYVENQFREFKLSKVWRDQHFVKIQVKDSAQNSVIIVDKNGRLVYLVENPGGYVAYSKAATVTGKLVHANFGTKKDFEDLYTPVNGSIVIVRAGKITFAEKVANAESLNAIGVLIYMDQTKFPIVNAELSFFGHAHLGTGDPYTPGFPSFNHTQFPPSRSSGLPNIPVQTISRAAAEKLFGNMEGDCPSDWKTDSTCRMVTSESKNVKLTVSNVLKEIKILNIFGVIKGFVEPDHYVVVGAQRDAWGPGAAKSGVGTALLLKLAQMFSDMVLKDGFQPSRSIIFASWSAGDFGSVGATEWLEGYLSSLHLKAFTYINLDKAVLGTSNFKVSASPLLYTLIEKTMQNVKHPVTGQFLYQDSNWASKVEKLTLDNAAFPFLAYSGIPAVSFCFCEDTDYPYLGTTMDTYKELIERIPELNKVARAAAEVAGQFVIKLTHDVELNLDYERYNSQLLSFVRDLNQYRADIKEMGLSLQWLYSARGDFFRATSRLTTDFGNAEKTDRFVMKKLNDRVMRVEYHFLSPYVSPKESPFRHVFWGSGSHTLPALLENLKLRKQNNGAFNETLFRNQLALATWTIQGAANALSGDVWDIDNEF
From the text: The generated alanine variants were expressed as single mutant, His-tagged Fabs by transient transfection of Chinese hamster ovary cells (ExpiCHO; Thermo Fisher Scientific) according to the manufacturer's instructions. Clarified media, into which the Fabs had been secreted, was used to assess binding to hTfR1 by BLI (Octet RED384, ForteBio). The expressed Fabs were loaded from the cell supernatants onto anti-Fab biosensors during 240 s. Thereafter, association of ectodomain of hTfR1 (SEQ ID NO:110), diluted to 3.75 μg/ml in 1× Kinetics buffer (ForteBio), to the loaded sensors was measured for 300 s, followed by dissociation for 300 s.

T1 sequence (P02786 89-760 limits assumed): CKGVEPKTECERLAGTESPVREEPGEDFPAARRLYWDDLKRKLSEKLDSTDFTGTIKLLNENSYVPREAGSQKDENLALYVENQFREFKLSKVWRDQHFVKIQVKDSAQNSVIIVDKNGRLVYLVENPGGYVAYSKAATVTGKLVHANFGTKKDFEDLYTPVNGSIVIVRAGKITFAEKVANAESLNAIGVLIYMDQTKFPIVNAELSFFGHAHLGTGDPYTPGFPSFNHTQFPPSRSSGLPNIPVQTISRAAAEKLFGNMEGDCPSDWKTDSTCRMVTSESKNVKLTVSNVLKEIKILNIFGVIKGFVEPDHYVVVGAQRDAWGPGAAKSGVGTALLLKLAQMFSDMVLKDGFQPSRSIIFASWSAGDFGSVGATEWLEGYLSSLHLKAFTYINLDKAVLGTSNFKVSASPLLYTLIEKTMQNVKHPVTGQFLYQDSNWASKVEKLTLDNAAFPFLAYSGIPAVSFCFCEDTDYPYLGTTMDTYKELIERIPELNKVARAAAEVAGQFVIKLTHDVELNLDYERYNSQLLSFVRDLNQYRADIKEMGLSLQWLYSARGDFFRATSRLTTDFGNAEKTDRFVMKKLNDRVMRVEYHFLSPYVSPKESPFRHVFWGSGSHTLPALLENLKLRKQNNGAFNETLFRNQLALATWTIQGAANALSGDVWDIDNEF

B1: h26D3-HC6, VL-first (scFv)
scFv: DIQMTQSPSSVSASVGDRVTITCKSSQSLLYSTNQKNYLAWYQQKPGKAPKLLIYWASTRESGVPSRFSGSGSGTDFTLTISSLQPEDFATYYCQQYFIYPRTFGQGTKVEIKGGGGSGGGGSGGGGSEVQLVQSGAEVKKPGSSVKVSCKASGYIFTDYNMDWVRQAPGQGLEWIGDINPDADTTSYNEKFKGRATLTVDKSTSTAYMELSSLRSEDTAVYYCARGGYSGSSYYHPMDYWGQGTLVTVSS
binding result [1]: binds

B2: h26D3-LC1_DS, VL-first (scFv)
scFv: DIQMTQSPSSVSASVGDRVTITCKSSQSLLASTNQKNYLAWYQQKPGKAPKLLIYWASTRESGVPSRFSGSGSGTDFTLTISSLQPEDFATYYCQQYFIYPRTFGCGTKVEIKGGGGSGGGGSGGGGSGGGGSEVQLVQSGAEVKKPGSSVKVSCKASGYIFTDYNMDWVRQAPGQCLEWIGDINPDYDTTSYNEKFKGRATLTVDKSTSTAYMELSSLRSEDTAVYYCARGGYSGSSYYHPMDYWGQGTLVTVSS
binding result [1]: binds

B3: h26D3-HC6 (scFv)
scFv: EVQLVQSGAEVKKPGSSVKVSCKASGYIFTDYNMDWVRQAPGQGLEWIGDINPDADTTSYNEKFKGRATLTVDKSTSTAYMELSSLRSEDTAVYYCARGGYSGSSYYHPMDYWGQGTLVTVSSGGGGSGGGGSGGGGSDIQMTQSPSSVSASVGDRVTITCKSSQSLLYSTNQKNYLAWYQQKPGKAPKLLIYWASTRESGVPSRFSGSGSGTDFTLTISSLQPEDFATYYCQQYFIYPRTFGQGTKVEIK
notes: also called scFv h26D3-HC6
binding result [1]: binds

B4: h26D3-LC1 (scFv)
scFv: B3 scFv with A55Y, Y169A
binding result [1]: binds

B5: h26D3-HC6_DS (scFv)
scFv: B3 scFv with G44C, Q244C
binding result [1]: binds

B6: H2L7-K12V/R71A/R83T (antibody, human IgG1, kappa)
heavy: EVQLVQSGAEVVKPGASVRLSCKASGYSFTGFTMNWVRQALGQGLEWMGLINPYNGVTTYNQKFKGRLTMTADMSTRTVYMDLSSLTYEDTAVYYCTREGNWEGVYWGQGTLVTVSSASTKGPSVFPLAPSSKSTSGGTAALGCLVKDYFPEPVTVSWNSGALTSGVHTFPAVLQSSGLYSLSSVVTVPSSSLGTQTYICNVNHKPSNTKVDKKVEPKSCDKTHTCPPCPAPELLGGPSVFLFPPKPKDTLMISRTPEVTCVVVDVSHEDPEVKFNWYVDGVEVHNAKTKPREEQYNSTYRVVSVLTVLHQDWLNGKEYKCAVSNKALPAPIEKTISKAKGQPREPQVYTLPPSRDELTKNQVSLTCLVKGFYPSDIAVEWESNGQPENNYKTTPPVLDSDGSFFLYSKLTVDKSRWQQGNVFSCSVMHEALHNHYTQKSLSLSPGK
light: EIVLTQSPLSLSVTLGQSASISCRSSQSLLDSNGKTYLHWFILRPGQSPRRLIYLVSILDSGVPDRFSGSGSGTDFTLKISRVEAEDVGVYYCVQGTHFPFTFGSGTKLEIKRTVAAPSVFIFPPSDEQLKSGTASVVCLLNNFYPREAKVQWKVDNALQSGNSQESVTEQDSKDSTYSLSSTLTLSKADYEKHKVYACEVTHQGLSSPVTKSFNRGEC
notes: VH variant of H2L7; VL and constant domains identical to H2L7
koff (AβpE3-42 protofibrils [2]): 2.45e-05 s⁻¹ | kon (AβpE3-42 protofibrils [2]): 57600 M⁻¹ s⁻¹ | Kd (AβpE3-42 protofibrils [3]): 0.427 nM | Kd (AβpE3-40 monomer [4]): 4.04 nM | koff (AβpE3-40 monomer [4]): 0.000234 s⁻¹ | kon (AβpE3-40 monomer [4]): 58700 M⁻¹ s⁻¹ | IC50 (AβpE3-42 protofibrils [5]): 4.9 nM | IC50 (Aβ1-40 monomer): > 500 nM | IC50 (AβpE3-40 monomer [6]): 2.29 nM | IC50 (Aβ1-42 protofibrils): > 132 nM

B7: H2L7-R71A (antibody, human IgG1, kappa)
heavy: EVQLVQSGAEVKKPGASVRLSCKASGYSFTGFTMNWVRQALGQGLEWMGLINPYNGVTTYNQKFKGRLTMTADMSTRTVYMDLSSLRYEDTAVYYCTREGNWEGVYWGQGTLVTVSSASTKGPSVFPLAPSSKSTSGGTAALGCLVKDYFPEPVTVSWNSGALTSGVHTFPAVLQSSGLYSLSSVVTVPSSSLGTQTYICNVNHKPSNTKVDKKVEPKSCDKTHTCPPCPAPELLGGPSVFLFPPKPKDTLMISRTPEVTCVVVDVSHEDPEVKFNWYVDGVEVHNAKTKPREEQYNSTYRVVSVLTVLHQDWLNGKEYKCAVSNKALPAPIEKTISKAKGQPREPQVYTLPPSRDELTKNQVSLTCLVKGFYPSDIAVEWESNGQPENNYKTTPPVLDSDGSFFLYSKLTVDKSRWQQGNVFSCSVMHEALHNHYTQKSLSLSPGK
light: B6 light
notes: as for B6
koff (AβpE3-42 protofibrils [2]): 2.54e-05 s⁻¹ | kon (AβpE3-42 protofibrils [2]): 67700 M⁻¹ s⁻¹ | Kd (AβpE3-42 protofibrils [3]): 0.376 nM | Kd (AβpE3-40 monomer [4]): 4.62 nM | koff (AβpE3-40 monomer [4]): 0.000225 s⁻¹ | kon (AβpE3-40 monomer [4]): 50100 M⁻¹ s⁻¹ | IC50 (AβpE3-42 protofibrils [5]): 4.59 nM | IC50 (Aβ1-40 monomer): > 500 nM | IC50 (AβpE3-40 monomer [6]): 2.54 nM | IC50 (Aβ1-42 protofibrils): > 132 nM

B8: H2L7-R71A/R83T (antibody, human IgG1, kappa)
heavy: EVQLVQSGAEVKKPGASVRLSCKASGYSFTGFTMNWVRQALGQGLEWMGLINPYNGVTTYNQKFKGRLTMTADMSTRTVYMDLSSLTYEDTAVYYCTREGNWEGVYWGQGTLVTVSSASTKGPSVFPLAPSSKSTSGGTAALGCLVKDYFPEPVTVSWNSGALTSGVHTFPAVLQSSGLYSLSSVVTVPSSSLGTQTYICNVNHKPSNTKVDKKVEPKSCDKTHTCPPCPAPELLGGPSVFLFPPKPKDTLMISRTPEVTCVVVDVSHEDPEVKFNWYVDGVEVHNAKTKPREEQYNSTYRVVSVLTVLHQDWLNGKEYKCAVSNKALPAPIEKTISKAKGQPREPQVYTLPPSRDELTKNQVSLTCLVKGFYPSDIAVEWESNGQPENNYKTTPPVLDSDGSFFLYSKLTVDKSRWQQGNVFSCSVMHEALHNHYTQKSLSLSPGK
light: B6 light
notes: as for B6
koff (AβpE3-42 protofibrils [2]): 2.73e-05 s⁻¹ | kon (AβpE3-42 protofibrils [2]): 57400 M⁻¹ s⁻¹ | Kd (AβpE3-42 protofibrils [3]): 0.471 nM | Kd (AβpE3-40 monomer [4]): 4.72 nM | koff (AβpE3-40 monomer [4]): 0.000235 s⁻¹ | kon (AβpE3-40 monomer [4]): 50900 M⁻¹ s⁻¹ | IC50 (AβpE3-42 protofibrils [5]): 5.44 nM | IC50 (Aβ1-40 monomer): > 500 nM | IC50 (AβpE3-40 monomer [6]): 2.77 nM | IC50 (Aβ1-42 protofibrils): > 132 nM

B9: h26D3 variant HC1 Fab (Fab, V domains shown)
VH: EVQLVQSGAEVKKPGSSVKVSCKASGYIFTAYNMDWVRQAPGQGLEWIGDINPDYDTTSYNEKFKGRATLTVDKSTSTAYMELSSLRSEDTAVYYCARGGYSGSSYYHPMDYWGQGTLVTVSS
VL: DIQMTQSPSSVSASVGDRVTITCKSSQSLLYSTNQKNYLAWYQQKPGKAPKLLIYWASTRESGVPSRFSGSGSGTDFTLTISSLQPEDFATYYCQQYFIYPRTFGQGTKVEIK
notes: Single-mutant His-tagged Fab; also called D31A
binding result [7]: binds

B10: h26D3 variant HC12 Fab (Fab, V domains shown)
VH: B9 VH with A31D, D111A
VL: B9 VL
notes: Single-mutant His-tagged Fab; also called D111A
binding result [7]: binds

B11: h26D3 variant HC9 Fab (Fab, V domains shown)
VH: B9 VH with A31D, Y101A
VL: B9 VL
notes: Single-mutant His-tagged Fab; also called Y101A
binding result [7]: binds

B12: h26D3 variant HC7 Fab (Fab, V domains shown)
VH: B9 VH with A31D, D56A
VL: B9 VL
notes: Single-mutant His-tagged Fab; also called D56A
binding result [7]: binds

B13: h26D3 variant LC4 Fab (Fab, V domains shown)
VH: B9 VH with A31D
VL: B9 VL with W56A
notes: Single-mutant His-tagged Fab; also called W56A
binding result [7]: binds

B14: h26D3 variant LC3 Fab (Fab, V domains shown)
VH: B9 VH with A31D
VL: B9 VL with Y55A
notes: Single-mutant His-tagged Fab; also called Y55A
binding result [7]: binds

B15: h26D3 variant LC2 Fab (Fab, V domains shown)
VH: B9 VH with A31D
VL: B9 VL with Y38A
notes: Single-mutant His-tagged Fab; also called Y38A
binding result [7]: binds

B16: h26D3 variant HC13 Fab (Fab, V domains shown)
VH: B9 VH with A31D, Y112A
VL: B9 VL
notes: Single-mutant His-tagged Fab; also called Y112A
binding result [7]: binds
